Reference: patent US11015206B2, “Compositions and methods comprising sequences having hydroxyphenylpyruvate dioxygenase (HPPD) activity” (PIONEER HI-BRED INTERNATIONAL, INC., priority 2014, dated 2021)
Substitutions are numbered along the chain they refer to.

B1: P056028-C-04 (protein)
chain: MGPTPTATAAGAAVAAASAAEQAAFRLVGHRNFVRFNPRSDRFQTLAFHHVELWCADAASAAGRFSFALGVPLAARSDLSTGNSAHASLLLRSGSLSLLFTAPYAHDADAATAALPSFSAAAARRFAADHGLAVRAVALRVADAEDAFRASVAAGARPAFGPVDLGRGFRLAEVELYGDVVLRYVSYPDGGAGEPFLPGFEGVASSGAADYGLSRFDHIVGNVPELAPAAAYMAGFTGFHEFAEFTTEDVGTTESGLNSMALANNSENVLLPLNEPVLGTKRRSQIQTFLDHHGGPGVQHIALASDDVLRTLREMRARSAMGGFEFLPPPLSDYYDGVRRCAGDVLTEAQINECQELGVMVDRDDEGVLLQIFTKPVGDRPTFFLEIIQRIGCMEKDEKGQEYQKGGCGGFGKGNFSQLFKSIEDYEKSLEAKRAAAAATAQGS
modifications: Zea mays variant form created by artificial means.
B2: P056028-D-07 (protein)
chain: B1 chain with D107G, G191A, S206Q, L278H, R340K, L385I, S417G, R434Q
modifications: Zea mays variant form created by artificial means.
B3: P056028-E-11 (protein)
chain: B1 chain with D107G, L278H, S417G, R434Q
modifications: Zea mays variant form created by artificial means.
B4: P056028-C-08 (protein)
chain: B1 chain with D107G, L182M, G191A, S206P, L278H, R340K, S417G, E431D, R434Q
modifications: Zea mays variant form created by artificial means.
B5: P056028-D-11 (protein)
chain: B1 chain with D107G, A142T, S206P, L278H, R340K, S417G, R434Q
modifications: Zea mays variant form created by artificial means.
B6: P056028-D-02 (protein)
chain: B1 chain with D107G, S206P, L278H, R340K, S417G, R434Q
modifications: Zea mays variant form created by artificial means.
B7: P056028-D-10 (protein)
chain: B1 chain with D107G, G191A, S206Q, N265D, L278H, S417G, R434Q
modifications: Zea mays variant form created by artificial means.
B8: P056028-D-05 (protein)
chain: B1 chain with D107G, G191A, L278H, R340K, E356R, R434Q
modifications: Zea mays variant form created by artificial means.
B9: P056028-C-09 (protein)
chain: B1 chain with D107G, G191A, S206P, S214N, L278H, S417G, R434Q
modifications: Zea mays variant form created by artificial means.
B10: P056028-D-04 (protein)
chain: B1 chain with D107G, L182M, G191A, S206P, Y211L, S214N, L278H, R434Q
modifications: Zea mays variant form created by artificial means.
B11: P056028-E-03 (protein)
chain: B1 chain with T45A, D107G, G191A, S206P, L278H, R434Q
modifications: Zea mays variant form created by artificial means.
B12: P056028-D-01 (protein)
chain: B1 chain with D107G, A122T, G191A, S206Q, L278H, E356K, S417G, R434Q
modifications: Zea mays variant form created by artificial means.
B13: P056028-E-10 (protein)
chain: B1 chain with D107G, L182M, G191A, S206Q, L278H, S417G, R434Q
modifications: Zea mays variant form created by artificial means.
B14: P056028-E-06 (protein)
chain: B1 chain with D107G, G191A, S206P, E244K, L278H, R340K, M394K, S417G, R434Q
modifications: Zea mays variant form created by artificial means.
B15: P056028-C-06 (protein)
chain: B1 chain with D107G, S214N, L278H, R340K, E356R, L385V, S417G, R434Q
modifications: Zea mays variant form created by artificial means.
B16: P056028-D-06 (protein)
chain: B1 chain with D107G, L182M, G191A, S206Q, Y211L, S214N, L278H, I387L, R434Q
modifications: Zea mays variant form created by artificial means.
B17: P056028-D-09 (protein)
chain: B1 chain with D107G, S206P, L278H, E356K, S417G, R434Q
modifications: Zea mays variant form created by artificial means.
B18: P056028-E-05 (protein)
chain: B1 chain with D107G, L278H, S417Q, R434Q
modifications: Zea mays variant form created by artificial means.

The molecules below were run on 4-hydroxyphenylpyruvate dioxygenase (HPPD) (assay: ON rate ratio: HPPD reaction rate with vs without inhibitor in the 70 to 90 second interval). Settings: Table 7; tembotrione; combinatorial variants.
Format: biochemical, Z. mays
How it was run: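 Indicator of inhibitor on-rate: reaction velocity in the 70 to 90 second window with 4 μM inhibitor divided by that without. Reactions contained 100 μM HPP and 60 or 120 nM HPPD; slower binding gives a larger ratio.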

Row | Molecule | ON rate ratio
1 | B1 | 0.727
2 | B2 | 0.775
3 | B3 | 0.721
4 | B4 | 0.712
5 | B5 | 0.719
6 | B6 | 0.730
7 | B7 | 0.670
8 | B8 | 0.730
9 | B9 | 0.706
10 | B10 | 0.696
11 | B11 | 0.735
12 | B12 | 0.728
13 | B13 | 0.702
14 | B14 | 0.346
15 | B15 | 0.742
16 | B16 | 0.731
17 | B17 | 0.652
18 | B18 | 0.704

Each molecule was assayed on 4-hydroxyphenylpyruvate dioxygenase (HPPD) (assay: OFF rate ratio: release of inhibitor from pre-formed enzyme-inhibitor complex). Settings: Table 7; tembotrione; combinatorial variants.
Format: biochemical, Z. mays
How it was run: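 Inhibitor release from pre-formed complex (enzyme 7.2 μM, inhibitor 8 μM, 1 h RT) tracked as accelerating HPPD activity at 320 nm over 12 min, coupled via 50 nM HGD with 100 μM HPP at pH 7. OFF rate ratio: steady-state velocity relative to uninhibited initial velocity.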

Row | Molecule | OFF rate ratio
19 | B1 | 0.322
20 | B2 | 0.370
21 | B3 | 0.304
22 | B4 | 0.381
23 | B5 | 0.261
24 | B6 | 0.299
25 | B7 | 0.253
26 | B8 | 0.508
27 | B9 | 0.314
28 | B10 | 0.197
29 | B11 | 0.412
30 | B12 | 0.348
31 | B13 | 0.339
32 | B14 | 0.186
33 | B15 | 0.351
34 | B16 | 0.424
35 | B17 | 0.371
36 | B18 | 0.325

The molecules below were run on 4-hydroxyphenylpyruvate dioxygenase (HPPD) (assay: Insensitivity parameter (ON × OFF) and trait fitness (ON × OFF × kcat/KM or × kcat)). Settings: Megatable 3; shuffled variants.
Format: biochemical, Z. mays
Parameters: key to ON × OFF / Insensitivity, mesotrione, ON × OFF / Insensitivity, tembotrione, ON × OFF / Insensitivity, topramezone, ON × OFF / Insensitivity, sulcotrione, ON × OFF / Insensitivity, isoxaflutole (DKN), ON × OFF: insensitivity = ON rate ratio × OFF rate ratio (surrogate for KD)
How it was run: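 Trait fitness combines catalysis and insensitivity as kcat/KM × ON rate ratio × OFF rate ratio. The insensitivity parameter is the product of ON and OFF rate ratios, used in place of KD because the ON rate ratio is inverse.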

Row | Molecule | ON × OFF | ON × OFF × kcat
37 | B1 | 0.234 | 5.32
38 | B2 | 0.286 | 2.60
39 | B3 | 0.219 | 3.70
40 | B4 | 0.271 | 3.65
41 | B5 | 0.188 | 3.21
42 | B6 | 0.218 | 5.31
43 | B7 | 0.170 | 3.07
44 | B8 | 0.371 | 4.66
45 | B9 | 0.222 | 3.76
46 | B10 | 0.137 | 1.71
47 | B11 | 0.303 | 5.10
48 | B12 | 0.254 | 5.39
49 | B13 | 0.238 | 2.73
50 | B14 | 0.064 | 1.76
51 | B15 | 0.261 | 2.77
52 | B16 | 0.310 | 3.07
53 | B17 | 0.242 | 3.16
54 | B18 | 0.229 | 3.48

Same assay, conditions: Table 7; tembotrione; combinatorial variants

Row | Molecule | ON × OFF | ON × OFF × kcat
55 | B1 | 0.234 | 5.32
56 | B2 | 0.286 | 2.60
57 | B3 | 0.219 | 3.70
58 | B4 | 0.271 | 3.65
59 | B5 | 0.188 | 3.21
60 | B6 | 0.218 | 5.31
61 | B7 | 0.170 | 3.07
62 | B8 | 0.371 | 4.66
63 | B9 | 0.222 | 3.76
64 | B10 | 0.137 | 1.71
65 | B11 | 0.303 | 5.10
66 | B12 | 0.254 | 5.39
67 | B13 | 0.238 | 2.73
68 | B14 | 0.064 | 1.76
69 | B15 | 0.261 | 2.77
70 | B16 | 0.310 | 3.07
71 | B17 | 0.242 | 3.16
72 | B18 | 0.229 | 3.48

Each molecule was assayed on 4-hydroxyphenylpyruvate dioxygenase (HPPD) (assay: Estimate of kcat from initial rate at saturating hydroxyphenylpyruvate without inhibitor (ON rate ratio assay)). Settings: Megatable 3; shuffled variants.
Format: biochemical, Z. mays
How it was run: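 kcat was estimated from the initial reaction rate with known enzyme level (60 or 120 nM HPPD). Hydroxyphenylpyruvate was at a saturating 100 μM, with no inhibitor present.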

Row | Molecule | kcat [s⁻¹]
73 | B1 | 0.378
74 | B2 | 0.152
75 | B3 | 0.282
76 | B4 | 0.225
77 | B5 | 0.285
78 | B6 | 0.405
79 | B7 | 0.302
80 | B8 | 0.21
81 | B9 | 0.283
82 | B10 | 0.207
83 | B11 | 0.282
84 | B12 | 0.355
85 | B13 | 0.192
86 | B14 | 0.47
87 | B15 | 0.177
88 | B16 | 0.165
89 | B17 | 0.217
90 | B18 | 0.253

Same assay, conditions: Table 7; combinatorial variants

Row | Molecule | kcat [s⁻¹]
91 | B1 | 0.378
92 | B2 | 0.152
93 | B3 | 0.282
94 | B4 | 0.225
95 | B5 | 0.285
96 | B6 | 0.405
97 | B7 | 0.302
98 | B8 | 0.21
99 | B9 | 0.283
100 | B10 | 0.207
101 | B11 | 0.282
102 | B12 | 0.355
103 | B13 | 0.192
104 | B14 | 0.47
105 | B15 | 0.177
106 | B16 | 0.165
107 | B17 | 0.217
108 | B18 | 0.253
